Results taken from PMC4690531 (Cell, 2010).
Entries after “also recorded” stand apart in the source; their conditions may differ. No end group written: not given here.

Key:
[1] = test system: HOXC8 expression in 293T cells; assay: HOXC8 expression in transfected 293T cells; assay type: cell-based; settings: overexpression, real-time PCR, empty vector control
[2] = biological target: T1, MLL1 PHD3-Bromo cassette (Homo sapiens, UniProt Q03164, DEL1666-1702); assay: Gel filtration complex formation with MLL1 PHD3-Bromo cassette; assay type: binding; settings: for binding of CyP33 mutants to PHD3-Bromo: in vitro, Figure 4, lines 7 and 11
[3] = test system: HOXA9; assay: Anti-HA ChIP of CyP33 binding at HOXA9; assay type: cell-based; settings: 293T cells, typical for at least three independent experiments
[4] = test system: HOXA9 expression in 293T cells; assay: HOXA9 expression in transfected 293T cells; assay type: cell-based; settings: overexpression, real-time PCR, empty vector control
[5] = test system: HOXC8; assay: Anti-HA ChIP of CyP33 binding at HOXC8; assay type: cell-based; settings: 293T cells, typical for at least three independent experiments
[6] = test system: H3 acetylation at HOXA9; assay: ChIP with anti-H3 pan acetyl; assay type: cell-based; settings: 293T cells, overexpression, anti-H3 pan acetyl (AcH3), typical for at least three independent experiments
[7] = biological target: complex of MLL1 PHD3-Bromo cassette and full-length CyP33 (UniProt Q03164); assay: ITC
[8] = biological target: coexpressed MLL1 PHD3-Bromo cassette (residues 1566–1784, with deletion of 1666–1702 ZA loop segment) (human) (UniProt Q03164); assay: ITC
[9] = test system: HOXC8 locus in K562 cells; settings: ref Fair et al., 2001; cited from earlier work
[10] = biological target: T1, MLL1 PHD3-Bromo cassette; assay: ITC binding of H3K4me peptides to coexpressed MLL1 PHD3-Bromo cassette; settings: vs H3K4me3 peptide without added Ala
[11] = test system: MLL1 Bromo alone (1639–1784); assay: 1H,15N-HSQC titration of MLL1 Bromo alone with acetyllysine peptides; assay type: binding; settings: five equivalents of H4(7-17)K12ac or H4(14-19)K16ac, H3K23ac and H3K27ac data not shown
[12] = test system: MLL1 PHD3-Bromo cassette (1566–1784); assay: 1H,15N-HSQC titration of MLL1 PHD3-Bromo cassette with acetyllysine peptides; assay type: binding; settings: five equivalents of H4(7-17)K12ac or H4(14-19)K16ac, H3K23ac and H3K27ac data not shown
[13] = test system: H3 acetylation at HOXC8; assay: ChIP with anti-H3 pan acetyl; assay type: cell-based; settings: 293T cells, overexpression, anti-H3 pan acetyl (AcH3), typical for at least three independent experiments
[14] = biological target: T2, CyP33 RRM (2–82) (UniProt Q9UNP9 2-82); assay: NMR structure
T2 sequence (looked up): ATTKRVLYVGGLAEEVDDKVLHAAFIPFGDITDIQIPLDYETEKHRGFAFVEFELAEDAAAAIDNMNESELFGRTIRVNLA

[15] = biological target: MLL1 PHD3-Bromo Y1581A mutant (human, UniProt Q03164 1566-1665; Q03164 1703-1784, Y1581A); assay: ITC
[16] = biological target: MLL1 PHD3-Bromo Q1587A mutant (human, UniProt Q03164 1566-1665; Q03164 1703-1784, Q1587A); assay: ITC
[17] = test system: MLL1 PHD3-Bromo mutant, where Pro1629 was replaced by Ala; assay: Complex formation with MLL1 PHD3-Bromo Pro1629 to Ala mutant; assay type: binding; settings: in the absence of CyP33 PPIase domain
[18] = test system: MLL2 PHD3 D1375M mutant; assay: Complex formation with MLL2 PHD3 D1375M; assay type: binding; settings: Figure 4, line 13
[19] = test system: MLL1 PHD3; assay: 1H,15N-HSQC Trp1594 indole resonance on sequential addition; assay type: binding; settings: H3K4me3 first (binary complex), then CyP33 RRM (ternary complex)
[20] = test system: MLL1 PHD3 domain alone; assay: Gel filtration complex formation with MLL1 PHD3 alone; assay type: binding
[21] = test system: MLL1 (1566–1639); assay: NMR monitoring of Pro1629 cis-to-trans transition; assay type: binding; settings: 1H,13C-HSQC
[22] = test system: MLL2 PHD3; assay: Gel filtration complex formation with MLL2 PHD3; assay type: binding
[23] = test system: MLL1 PHD3 M1606D mutant; assay: Complex formation with MLL1 PHD3 M1606D; assay type: binding; settings: Figure 4, line 10
[24] = test system: AU-rich RNAs; settings: ref Mi et al., 1996; Wang et al., 2008; cited from earlier work
[25] = biological target: T3, CyP33 RRM (1–82) (UniProt Q9UNP9 1-82); assay: NMR titration
T3 sequence (looked up): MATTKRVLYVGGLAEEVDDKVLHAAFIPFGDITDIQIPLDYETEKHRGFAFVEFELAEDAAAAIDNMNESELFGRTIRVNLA

Molecule: F196E/M197E: CyP33 with F196E/M197E double mutation in the PPIase domain
- HOXC8 repression [1]: did not cause any repression of either HOX gene; also recorded: not in cells expressing the F51D (green bars)or F196E/M197E
- binding of CyP33 mutants to PHD3-Bromo [2]: reduced the binding between CyP33 and PHD3-Bromo
- CyP33 binding to HOXA9 [3]: bound to HOXA9 and HOXC8
- HOXA9 repression [4]: did not cause any repression of either HOX gene; also recorded: not in cells expressing the F51D (green bars)or F196E/M197E
- CyP33 binding to HOXC8 [5]: bound to HOXA9 and HOXC8
- H3 acetylation at HOXA9 [6]: not in cells expressing the F51D (green bars) and F196E/M197E

Molecule: H3(1-15)K4me2 peptide (from UniProt P68431 2-16)
- Kd [7]: 15.2 µM
- Kd [8]: 6.9 µM

Molecule: CyP33: cyclophilin with N-terminal RRM and C-terminal PPIase domain; FLAG-HA-tagged in 293T experiments
- HOXC8 repression [1]: reduced
- CyP33 binding to HOXA9 [3]: bound to HOXA9 and HOXC8
- repression of HOXC8 locus [9]: repressor of the HOXC8 locus
- HOXA9 repression [4]: reduced
- CyP33 binding to HOXC8 [5]: bound to HOXA9 and HOXC8

Molecule: C[C@H](N)C(=O)N[C@@H](C)C(=O)N[C@@H](C)C(=O)N[C@@H](C)C(=O)N[C@@H](CCCNC(=N)N)C(=O)N[C@H](C(=O)N[C@@H](CCCC[N+](C)(C)C)C(=O)N[C@@H](CCC(N)=O)C(=O)N[C@H](C(=O)N[C@@H](C)C(=O)N[C@@H](CCCNC(=N)N)C(=O)N[C@@H](CCCCN)C(=O)N[C@@H](CO)C(=O)N[C@H](C(=O)NCC(=O)NCC(=O)N[C@@H](CCCCN)C(=O)N[C@@H](C)C(=O)O)[C@@H](C)O)[C@@H](C)O)[C@@H](C)O [Ala-Ala-Ala tri-peptide]
- increase of dissociation constant on N-terminal extension [10]: 15 fold

Molecule: H4(14-19)K16ac: acetylated histone H4 peptide
- complexation shifts, Bromo alone [11]: did not observe any complexation shifts
- complexation shifts, PHD3-Bromo cassette [12]: did not observe any complexation shifts

Molecule: C[C@H](N)C(=O)N[C@@H](C)C(=O)N[C@@H](CCCNC(=N)N)C(=O)N[C@H](C(=O)N[C@@H](CCCC[N+](C)(C)C)C(=O)N[C@@H](CCC(N)=O)C(=O)N[C@H](C(=O)N[C@@H](C)C(=O)N[C@@H](CCCNC(=N)N)C(=O)N[C@@H](CCCCN)C(=O)N[C@@H](CO)C(=O)N[C@H](C(=O)NCC(=O)NCC(=O)N[C@@H](CCCCN)C(=O)N[C@@H](C)C(=O)O)[C@@H](C)O)[C@@H](C)O)[C@@H](C)O [single Ala]
- increase of dissociation constant on N-terminal extension [10]: 6 fold

Molecule: H3(1-15)K4me3 peptide (from UniProt P68431 2-16)
- Kd [7]: 11.6 µM
- Kd [8]: 4.3 µM

Molecule: H3K4me3 peptide with a single Ala added at the N terminus
- Kd [8]: 26 µM

Molecule: F51D: CyP33 with F51D mutation in the RRM domain
- H3 acetylation at HOXC8 [13]: unable to deacetylate
- HOXC8 repression [1]: did not cause any repression of either HOX gene; also recorded: not in cells expressing the F51D; also recorded: unable to deacetylate and repress target genes
- binding of CyP33 mutants to PHD3-Bromo [2]: sufficient to abolish the binding between CyP33 and MLL1 PHD3-Bromo
- CyP33 binding to HOXA9 [3]: variably reduced CyP33 binding; also recorded: only partially disrupted in its ability to bind to HOXA9 and HOXC8
- HOXA9 repression [4]: did not cause any repression of either HOX gene; also recorded: not in cells expressing the F51D; also recorded: unable to deacetylate and repress target genes
- CyP33 binding to HOXC8 [5]: variably reduced CyP33 binding; also recorded: only partially disrupted in its ability to bind to HOXA9 and HOXC8
- H3 acetylation at HOXA9 [6]: not in cells expressing the F51D; also recorded: unable to deacetylate

Molecule: H3K4me3 peptide with an Ala-Ala-Ala tripeptide added at the N terminus
- Kd [8]: 64 µM

Molecule: H4(7-17)K12ac: acetylated histone H4 peptide
- complexation shifts, Bromo alone [11]: did not observe any complexation shifts
- complexation shifts, PHD3-Bromo cassette [12]: did not observe any complexation shifts

Molecule: H3(1-15)K4me1 peptide (from UniProt P68431 2-16)
- Kd [8]: 53 µM

B1: interacting segment of MLL1 PHD3 (1585–1628) (domain or fragment, human, UniProt Q03164 1585-1628, looked up)
chain: MMQCGKCDRWVHSKCENLSDEMYEILSNLPESVAYTCVNCTERH
- binding result [14]: binds

B2: H3(1-15)K4me3 peptide (peptide, UniProt P68431 2-16, looked up)
peptide: ARTK(Me3)QTARKSTGGKA
- binding result [15]: binds
- binding result [16]: binds

B3: CyP33 RRM: RRM domain (1–82) of CyP33 (protein)
chain: MATTKRVLYVGGLAEEVDDKVLHAAFIPFGDITDIQIPLDYETEKHRGFAFVEFELAEDAAAAIDNMNESELFGRTIRVNLA
- interaction with PHD3-Bromo P1629A [17]: interacted with a PHD3-Bromo mutant
- binding to MLL2 PHD3 D1375M [18]: converted MLL2 PHD3 to a CyP33 RRM binding partner
- Trp1594 indole resonance shift on sequential addition [19]: upfield shift
- complex formation with PHD3 alone [20]: formed a complex with the PHD3 domain alone
- complex formation with PHD3-Bromo cassette ([2]; gel filtration): not with the PHD3-Bromo cassette
- His1628-Pro1629 peptide bond configuration change [21]: transits from cis-to-trans configuration upon interaction with CyP33 RRM
- Pro1629 Cγ chemical shift upon addition ([21]; major cross peak 25.3 ppm (cis) in free state): 27.5 ppm
- binding to MLL2 PHD3 [22]: does not bind CyP33 RRM
- complex formation with MLL1 PHD3 M1606D [23]: completely disrupted its complex formation with CyP33 RRM
- RNA preference [24]: some preference for AU-rich RNAs

B4: MLL1 (1566–1639) (domain or fragment, human, UniProt Q03164 1566-1639, looked up)
chain: GNFCPLCDKCYDDDDYESKMMQCGKCDRWVHSKCENLSDEMYEILSNLPESVAYTCVNCTERHPAEWRLALEKE
- binding result [25]: binds
